B1: VCP^WT-sfGFP (Drosophila VCP tagged with sfGFP at the endogenous locus) [Drosophila] / wild-type VCP (endogenous, untagged, Drosophila) [Drosophila (endogenous in flies)] (parent)
chain 1: MADSKGEDLATAILKRKDRPNRLIVEEAQNDDNSVVSLSQAKMDELQLFRGDTVILKGKRRKETVCIVLSDDTCPDEKIRMNRVVRNNLCVHLSDVVSVQSCPDVKYGKRVRILPIDESTEGVTGNLFEIYLKPYFLEAYRPIHMGDNFIVRAAMRPIEFKVVLTDPEPYCIVAPETVIFCDGDPIKREEEEESLNAVGYDDIGGCRKQLAQIKEMVELPLRHPSLFKAIGVKPPRGILMYGPPGTGKTLIARAVANETGAFFFLINGPEIMSKLAGESESNLRKAFEEAEKNSPAIIFIDEIDAIAPKRDKTHGEVERRIVSQLLTLMDGMKKSSHLIVMAATNRPNSIDPALRRFGRFDREIDIGIPDATGRLEVLRIHTKNMKLHDDVDLEQIAAESHGHVGADLASLCSEAALQQIREKMDLIDLEDDKIDAEVLASLAVTMENFRYAMTKSSPSALRETVVEVPNTTWTDIGGLESVKKELQELVQYPVEHPDKFLKFGMQPSRGVLFYGPPGCGKTLLAKAIANECQANFISVKGPELLTMWFGESEANVRDIFDKARSAAPCVLFFDELDSIAKARGGNVGDAGGAADRVINQILTEMDGMGAKKNVFIIGATNRPDIIDPAILRPGRLDQLIYIPLPDDKSREAILKANLRKSPLAKEVDLTYIAKVTQGFSGADLTEICQRACKLAIRQAIEAEIRREKERAENQNSAMDMDEDDPVPEITSAHFEEAMKFARRSVSDNDIRKYEMFAQTLQQSRGFGQNFRFPGQTGNTSGSGNNLPVNSPGDNGDDDLYS
chain 2: B1 chain 1

Variants of: B1
Assay: co-immunoprecipitation (IP: GFP, IB: VCP), band quantification
Conditions: with wild-type VCP (endogenous, untagged, Drosophila) [Drosophila (endogenous in flies)]; heterozygous flies; n = 3 independent experiments; read off a plot

| Variant | response |
| --- | --- |
| chain 1 P134L | 0.93 |

Reference: paper PMC7820495
